Measured values published in paper PMC11783328 (Science immunology, 2024).

Target: T1, BG505 SOSIP.v4.1-GT1.1 (HIV-1 (isolate BG505), UniProt Q2N0S6)
T1 construct: copies: 3 + 3
Assay: SPR; Biacore 3000; His-tagged GT1 and GT1.1 trimers captured in parallel flow cells; IgG injected from 1 uM in two- or four-fold dilutions; association 300 s, dissociation 600 s, 50 uL/min; bivalent model (first- and second-point interaction; kon2 and KD2 converted from RU units)
Settings: both partners purified

B1: gl-3BNC60 (antibody, V domains shown)
VH: not shown
VL: DIQMTQSPSSLSASVGDRVTITCQASQDISNYLNWYQQKPGKAPKLLIYDASNLETGVPSRFSGSGSGTDFTFTISSLQPEDIATYYCQQYEFIGPGTKVDIK
notes: also called 3BNC60 germline; inferred germline precursor of 3BNC60
  stoichiometry N: 1.1 paratopes per trimer
